Results taken from publication PMC3813734, “Biochemical Characterization of a First Fungal Esterase from Rhizomucor miehei Showing High Efficiency of Ester Synthesis” (PLoS ONE, 2013).

Tests used:
Test in all cases: purified protein
Format in all cases: biochemical, Rhizomucor miehei
Conditions in all cases: 50 mM sodium phosphate pH 6.5, 45 °C, 5 min
purified protein [1] = substrate: CCCC(=O)Oc1ccc([N+](=O)[O-])cc1
purified protein [2] = substrate: CCCCCCCCCC(=O)Oc1ccc([N+](=O)[O-])cc1
purified protein [3] = substrate: CC(=O)Oc1ccc([N+](=O)[O-])cc1
purified protein [4] = substrate: CCCCCC(=O)Oc1ccc([N+](=O)[O-])cc1
purified protein [5] = substrate: CCCCCCCCCCCC(=O)Oc1ccc([N+](=O)[O-])cc1
purified protein [6] = substrate: CCCCCCCC(=O)Oc1ccc([N+](=O)[O-])cc1

B1: RmEstA (Rhizomucor miehei) (protein)
chain: MTVGNPPIHPVYAAAFAAMKERPPIHTLDLKVVRESSEARQLAANIKLPEVIEEDKVVESDGKTLKLTIVRPPGTEDQILPVLIFLHGGGFVFGSKYTHIKPVRDLTVKANVVTVFVDYSLSPEAKFPTAIEEIYAAILWVRENASSLNINAEALAVAGDSAGATLSAAVSIYAKEKGLSAAIKTQVLIYPATAVSHAKYESYKLFGNGDYILSAEDLKFFSNAYLPAPASELNDKLATLELATKADLEGLPPALLFTAESDVLRDEGEKYAQQLAEAGVDVAAVRVLGAVHGFITVPVETPQYRFTINTIVAHLRDIYAKYNA
notes: full-length ORF, 324 residues, no signal peptide predicted; C-terminal His tag (pET-30a(+), NdeI/XhoI); E. coli BL21(DE3); Ni-IDA; 34,989 Da calculated, 34 kDa SDS-PAGE
Question: How did the Km (purified protein [1]) turn out when B1 was run?
Answer: 170 µM

Question: And the kcat/Km (purified protein [1])?
Answer: 6900 M⁻¹ s⁻¹

Question: And the Km (purified protein [2])?
Answer: 280 µM

Question: What about the kcat/Km (purified protein [2]) of the same protein?
Answer: 130 M⁻¹ s⁻¹

Question: What about the Km (purified protein [3]) of the same protein?
Answer: 1000 µM

Question: What about the kcat/Km (purified protein [3]) of the same protein?
Answer: 370 M⁻¹ s⁻¹

Question: What about the Km (purified protein [4]) of the same protein?
Answer: 120 µM

Question: What about the kcat/Km (purified protein [4]) of the same protein?
Answer: 8970 M⁻¹ s⁻¹

Question: What about the Km (purified protein [5]) of the same protein?
Answer: 300 µM

Question: And the kcat/Km (purified protein [5])?
Answer: 60 M⁻¹ s⁻¹

Question: What about the Km (purified protein [6]) of the same protein?
Answer: 820 µM

Question: And the kcat/Km (purified protein [6])?
Answer: 510 M⁻¹ s⁻¹
